Measurements reported in US20050089926A1, “Ligand sensing fluorescent acetylcholinesterase for detection of organophosphate activity” (priority 2002, published 2005).
Changes are numbered by the printed parent chain. Numbers in names are those of the source. Where “and” joins values, the source holds several entries; their conditions need not be identical. Equal values may be shown once. Read-outs that look alike come from different tables or passages of the source.

B1: E84C (protein, UniProt P21836 32-614, looked up, variant E84C)
Acetylcholinesterase: EGREDPQLLVRVRGGQLRGIRLKAPGGPVSAFLGIPFAEPPVGSRRFMPPEPKRPWSGVLDATTFQNVCYQYVDTLYPGFEGTCMWNPNRELSEDCLYLNVWTPYPRPASPTPVLIWIYGGGFYSGAASLDVYDGRFLAQVEGAVLVSMNYRVGTFGFLALPGSREAPGNVGLLDQRLALQWVQENIAAFGGDPMSVTLFGESAGAASVGMHILSLPSRSLFHRAVLQSGTPNGPWATVSAGEARRRATLLARLVGCPPGGAGGNDTELIACLRTRPAQDLVDHEWHVLPQESIFRFSFVPVVDGDFLSDTPEALINTGDFQDLQVLVGVVKDEGSYFLVYGVPGFSKDNESLISRAQFLAGVRIGVPQASDLAAEAVVLHYTDWLHPEDPTHLRDAMSAVVGDHNVVCPVAQLAGRLAAQGARVYAYIFEHRASTLTWPLWMGVPHGYEIEFIFGLPLDPSLNYTTEERIFAQRLMKYWTNFARTGDPNDPRDSKSPQWPPYTTAAQQYVSLNLKPLEVRRGLRAQTCAFWNRFLPKLLSATDTLDEAERQWKAEFHRWSSYMVHWKNQFDHYSKQERCSDL
B2: H287C (protein, UniProt P21836 32-614, looked up, variant H287C)
Acetylcholinesterase: B1 Acetylcholinesterase with C84E, H287C
B3: A262C (protein, UniProt P21836 32-614, looked up, variant A262C)
Acetylcholinesterase: B1 Acetylcholinesterase with C84E, A262C
B4: Wild Type (protein, UniProt P21836 32-614, looked up)
Acetylcholinesterase: B1 Acetylcholinesterase with C84E

Experiments:
[1] = system: wild type and mutant mouse AChEs; assay: Acetylthiocholine hydrolysis kinetics (Ellman method); type: biochemical; details: means ± S.D.
Protocol: Assay of Catalytic Activity—The spectrophotometric method of Ellman was used (25), and kinetic constants for acetylthiocholine hydrolysis were determined by fitting the observed rates as described (26). Titration of active sites with known concentrations of the irreversible phosphorylating agent, MEPQ, was accomplished by the method of Levy and Ashani (27).

mouse AChE = assay: TFK+ inhibition, association rate from residual enzyme activity; type: biochemical; details: for TFK+ kon: unlabeled enzyme, from measurements of enzyme activity
Protocol: Trifluoroacetophenone Inhibition—Picomolar amounts of enzyme in 0.01% bovine serum albumin in 0.1 M sodium phosphate buffer, pH 7.0, were reacted with TFK^+ in the absence of substrate. Inhibition was monitored by measuring residual enzyme activity by removal of aliquots during the course of the reaction. Bimolecular rate constants of inhibition were determined by nonlinear fit of the data (28). ΔF=ΔFmax(Et+It+Kd−/(Et+It+Kd)^2−4 EtIt∫^0.5)(2Et)^−1 (Eq. 1)
(§1) TFK^+ binding to cysteine-substituted enzymes, both free and modified with acrylodan, was also examined (Table II). For E81C and E84C, the association rate constants (kon) for TFK^+ were obtained from measurements of enzyme activity. […] For acrylodan-labeled mutants, kon was measured from the time-dependent decrease of fluorescence signal (FIG. 3).

[2] = target: T1, acrylodan-labeled E81C and E84C (Mus musculus, UniProt P21836, E115C); type: binding; details: acrylodan-conjugated E84C
T1 construct: made in house; host or cells: HEK293
Protocol: as §1

E81C and E84C AChEs [3] = assay: Edrophonium binding, stopped-flow tryptophan fluorescence quenching (koff/kon); set-up: species or system mouse; details: unlabeled mutant
Protocol: (§2) Association and dissociation rate constants of edrophonium and […] with E81C and E84C AChEs were determined from changes in the tryptophan fluorescence using a stopped-flow spectrophotometer as described previously (29). Time-dependent decreases in tryptophan fluorescence were observed upon excitation at 276 nm by means of a 305 nm emission cut-off filter.

E81C and E84C AChEs [4] = assay: BW284c51 binding, stopped-flow tryptophan fluorescence quenching (koff/kon); set-up: species or system mouse; details: unlabeled mutant
Protocol: as §2

[5] = target: T2, acrylodan-labeled mouse AChE mutants (Mus musculus, UniProt P21836, E115C); details: edrophonium, tacrine or huperzine bound
T2 construct: made in house; host or cells: HEK293

[6] = system: wild type and mutant mouse AChEs; details: data from Boyd et al. 2000, cited from earlier work; for Km / kcat: acetylthiocholine hydrolysis; for b: relative catalytic turnover of the ternary complex; for KSS: substrate inhibition or activation constant

Molecule | Km ([1]; acetylthiocholine hydrolysis) | kcat ([1]; acetylthiocholine hydrolysis) | b ([1]; relative catalytic turnover of the ternary complex) | KSS ([1]; substrate inhibition or activation constant) | TFK+ kon (mouse AChE) | TFK+ kon ratio to wild type (head is formula MATH:1) (mouse AChE; unlabeled mutant) | reduction of kon of TFK+ by acrylodan conjugation compared with unconjugated E84C [2] | Edrophonium Kd ratio to wild type (head is formula MATH:2) (E81C and E84C AChEs [3]) | BW284c51 Kd ratio to wild type (head is formula MATH:3) (E81C and E84C AChEs [4]) | bathochromic shift upon inhibitor binding [5] | Km [6] | kcat [6] | b [6] | KSS [6]
B1 | 190 ± 9 µM | 1.9 ± 0.4 10^5/min | 0.2 ± 0.05 | 26 ± 2 mM | 93 10^9M^−1min^−1 | 1.6 | 7 fold | 2 and 2.2 | 18 | 33 nm |  |  |  | 
B2 |  |  |  |  |  |  |  |  |  |  | 58 ± 7 µM | 1.8 ± 0.2 10^5/min | 0.2 ± 0.06 | 12 ± 6 mM
B3 |  |  |  |  |  |  |  |  |  |  | 59 ± 4 µM | 1.6 ± 0.1 10^5/min | 0.2 ± 0.04 | 11 ± 3 mM
B4 |  |  |  |  | 150 10^9M^−1min^−1 |  |  |  |  |  | 54 ± 16 µM | 1.6 ± 0.4 10^5/min | 0.2 ± 0.07 | 14 ± 5 mM
